Positions count from the first letter of the chain named.

This assay deals with T1, sIL-6R (soluble IL-6 receptor; SBH Sciences) (human, UniProt P08887 20-365).
T1 construct: also called human IL-6R
T1 sequence: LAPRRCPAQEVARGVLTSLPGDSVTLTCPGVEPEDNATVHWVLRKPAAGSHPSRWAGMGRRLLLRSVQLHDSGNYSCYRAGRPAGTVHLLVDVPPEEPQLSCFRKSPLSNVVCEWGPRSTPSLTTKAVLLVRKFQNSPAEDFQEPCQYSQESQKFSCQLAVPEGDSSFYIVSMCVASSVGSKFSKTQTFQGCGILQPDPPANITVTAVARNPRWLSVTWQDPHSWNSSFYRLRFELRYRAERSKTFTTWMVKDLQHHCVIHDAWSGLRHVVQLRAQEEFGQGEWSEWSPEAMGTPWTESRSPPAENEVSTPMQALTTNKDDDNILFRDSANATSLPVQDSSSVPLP
Nature of the assay: SPR (BIAcore 3000), antibody on chip, sIL-6R analyte, 25 C. On the procedure:
All SPR measurements were performed on a BIAcore 3000 instrument (GE Biosciences, Piscataway, N.J.). BIAcore Software-BIAcore 3000 Control Software V3.2 was used for the operation and control of the BIAcore 3000 instrument. BiaEvaluation Software V4.1 was used for the analysis of SPR data from the BIAcore 3000 instrument and data was plotted using Graph Pad Prism Software Version 5. […] The indicated antibodies were used as the ligand for the construction of the reference channel of the chip. […] Each sample was injected for 3 min at a flow rate of 30 μL/min to allow for binding to chip-bound antibody. Next, binding buffer without analyte was sent over the chip at the same flow rate to allow for dissociation of bound analyte. After 500s, remaining bound analyte was removed by injecting regeneration solution (1M Formic acid). Data was analyzed by using the Kinetics Wizard and the manual fitting programs that are both included with the BiaEvaluation Software V4.1.
(In general: Surface plasmon resonance follows binding to a sensor surface in real time, without labels.)

B1: 52# (antibody, human IgG1, kappa, V domains shown)
VH: QVQLQESGPGLVRPSQTLSLTCTVSGYSITSDHAWSWVRQPPGRGLEWIGYISYSGITTYNPSLKSRVTMLRDTSKNQFSLRLSSVTAADTAVYYCARSLARTTAIDFWGQGSLVTVSS
VL: DIQMTQSPSSLSASVGDRVTITCRASQDISSYLNWYQQKPGKAPKLLIYYTSRLHSGVPSRFSGSGSGTDFTFTISSLQPEDIATYYCQQGNTLPYTFGQGTKVEIKR
notes: also called Sample # 52
For the molecule B1, the dissociation constant Kd (as a rule, a measure of binding affinity in units of concentration) is 1860 pM; the “Relative Affinity” value was 1.7 fold vs 25 (Tocilizumab); the koff (in general, the rate constant with which the complex falls apart) worked out at 0.000199 s⁻¹; the on-rate (kon) (as a rule, a measure of how fast the partners come together) was determined as 107000 M⁻¹ s⁻¹.

B2: 218# (antibody, human IgG1, kappa, V domains shown)
VH: B1 VH with I57M, T58I, S99C, T103M
VL: B1 VL
Turning to B2, the dissociation constant (Kd) is 621 pM, the “Relative Affinity” value is 5.1 fold vs 25 (Tocilizumab), the koff came to 6.63e-05 s⁻¹ and the kon was determined as 107000 M⁻¹ s⁻¹.

B3: 55# (antibody, human IgG1, kappa, V domains shown)
VH: B1 VH with Y51F, I57M, T58I, S99C, I106M, F108Y
VL: B1 VL
notes: also called Sample # 55
For B3, the Kd was determined as 387 pM, the “Relative Affinity” value is 8.2 fold vs 25 (Tocilizumab), the off-rate (koff) is 7.24e-05 s⁻¹ and the kon is 187000 M⁻¹ s⁻¹.

B4: 219# (antibody, human IgG1, kappa, V domains shown)
VH: B1 VH with S99C, T103M
VL: B1 VL with Q89G, T93R
For the molecule B4, the equilibrium dissociation constant (Kd) turned out to be 491 pM, the “Relative Affinity” value was 6.4 fold vs 25 (Tocilizumab), the koff is 5.96e-05 s⁻¹ and the kon was 121000 M⁻¹ s⁻¹.

B5: 59# (antibody, human IgG1, kappa, V domains shown)
VH: B1 VH with Y51F, I57M, S99C, I106M, F108Y
VL: B1 VL
notes: also called Sample # 59
As to B5, the dissociation constant Kd was 283 pM, the “Relative Affinity” value is 11.2 fold vs 25 (Tocilizumab), the koff worked out at 4.86e-05 s⁻¹ and the on-rate (kon) was 172000 M⁻¹ s⁻¹.

B6: 216# (antibody, human IgG1, kappa, V domains shown)
VH: B1 VH with I57M, T58I
VL: B1 VL
notes: also called Sample # 216
Take B6: binding was put at a Kd of 1830 pM, the “Relative Affinity” value is 1.7 fold vs 25 (Tocilizumab), the koff was 0.000266 s⁻¹ and the kon is 145000 M⁻¹ s⁻¹.

B7: 69# (antibody, human IgG1, kappa, V domains shown)
VH: B1 VH with Y51F, I57M, S99C
VL: B1 VL
notes: also called Sample # 69
B7: the affinity, expressed as Kd, was 286 pM; the “Relative Affinity” value was 11 fold vs 25 (Tocilizumab); the koff worked out at 4.14e-05 s⁻¹; the kon came to 145000 M⁻¹ s⁻¹.

B8: 215# (antibody, human IgG1, kappa, V domains shown)
VH: B1 VH with I57M, T58I, T103M, I106M, F108Y
VL: B1 VL
On to B8, for which the Kd worked out at 1030 pM, the “Relative Affinity” value was 3.1 fold vs 25 (Tocilizumab), the off-rate constant (koff) was found to be 0.000161 s⁻¹ and the kon worked out at 157000 M⁻¹ s⁻¹.

B9: 214# (antibody, human IgG1, kappa, V domains shown)
VH: B1 VH with S99C, T103M
VL: B1 VL
Take B9: binding was put at a Kd of 369 pM, the “Relative Affinity” value was 8.7 fold vs 25 (Tocilizumab), the koff turned out to be 4.69e-05 s⁻¹ and the kon amounted to 127000 M⁻¹ s⁻¹.

B10: 220# (antibody, human IgG1, kappa, V domains shown)
VH: B1 VH with I57M, T58I, T103M, I106M, F108Y
VL: B1 VL with Q89G, T93R
notes: also called Sample # 220
For the molecule B10, the Kd stood at 483 pM, the “Relative Affinity” value is 6.5 fold vs 25 (Tocilizumab), the koff was found to be 6.34e-05 s⁻¹ and the kon amounted to 131000 M⁻¹ s⁻¹.

B11: 217# (antibody, human IgG1, kappa, V domains shown)
VH: B1 VH with I57M, T58I, S99C, T103M, I106M, F108Y
VL: B1 VL
notes: also called Sample # 217
As to B11, the affinity, expressed as Kd, was 581 pM; the “Relative Affinity” value is 5.4 fold vs 25 (Tocilizumab); the koff came out at 0.000109 s⁻¹; the kon came to 188000 M⁻¹ s⁻¹.
